This is an account of results in US20220040234A1 (JUVENTAS CELL THERAPY, published 2022).

The assay deals with T1, CD19 on the CD19-positive human leukemia cell line Nalm-6 (human, UniProt P15391 20-556).
T1 sequence (looked up): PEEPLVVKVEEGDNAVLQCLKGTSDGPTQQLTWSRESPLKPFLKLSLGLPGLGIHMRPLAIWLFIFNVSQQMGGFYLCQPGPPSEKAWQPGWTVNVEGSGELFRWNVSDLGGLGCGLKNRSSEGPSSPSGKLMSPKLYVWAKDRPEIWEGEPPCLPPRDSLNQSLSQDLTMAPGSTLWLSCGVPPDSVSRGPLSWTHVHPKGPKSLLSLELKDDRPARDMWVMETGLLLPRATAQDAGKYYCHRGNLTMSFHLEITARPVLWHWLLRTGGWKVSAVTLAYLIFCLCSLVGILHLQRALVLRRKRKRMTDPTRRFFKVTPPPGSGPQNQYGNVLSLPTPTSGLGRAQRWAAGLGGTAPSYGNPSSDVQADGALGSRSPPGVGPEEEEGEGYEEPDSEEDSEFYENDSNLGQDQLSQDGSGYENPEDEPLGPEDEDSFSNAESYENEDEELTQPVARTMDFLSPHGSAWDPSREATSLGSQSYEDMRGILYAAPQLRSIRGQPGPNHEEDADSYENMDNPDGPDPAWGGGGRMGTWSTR
Description: cell-based or functional assay.

B1: CD19-targeted chimeric antigen receptor (CAR) of SEQ ID NO. 1, expressed on the surface of CNCT19 cells (other)
chain: GSDIVLTQSPKFMSTSVGDRVSVTCKASQNVGTNVAWYQQKPGQSPKPLIYSATYRNSGVPDRFTGSGSGTDFTLTITNVQSKDLADYFCQQYNRYPYTSGGGTKLEIKRGGGGSGGGGSGGGGSQVQLQQSGAELVRPGSSVKISCKASGYAFSSYWMNWVKQRPGQGLEWIGQIYPGDGDTNYNGKFKGQATLTADKSSSTAYMQLSGLTSEDSAVYFCARKTISSVVDFYFDYWGQGTTLTVSSEFTTTPAPRPPTPAPTIASQPLSLRPEACRPAAGGAVHTRGLDFACDIYIWAPLAGTCGVLLLSLVITLYCKRGRKKLLYIFKQPFMRPVQTTQEEDGCSCRFPEEEEGGCELRVKFSRSADAPAYQQGQNQLYNELNLGRREEYDVLDKRRGRDPEMGGKPRRKNPQEGLYNELQKDKMAEAYSEIGMKGERRRGKGHDGLYQGLSTATKDTYDALHMQALPPR
In the case of B1, the “IL-6 secreted by CNCT19 cells after 24 h co-culture with Nalm-6 target cells, effector/target ratio 2:1” value stood at 32.2 pg/mL; the “INF-γ secreted by CNCT19 cells after 24 h co-culture with Nalm-6 target cells, effector/target ratio 2:1” value is 6190 pg/mL; the “residual rate of target cells (Nalm-6) after 24 h co-culture with CNCT19 cells, effector/target ratio 1:2, flow cytometry” value came out at 2.8%; the “residual rate of target cells (Nalm-6) after 24 h co-culture with CNCT19 cells, effector/target ratio 2:1, flow cytometry” value worked out at 1.1%.
